Data published in article PMC5027281 (Nature Communications, 2016).

Target: Recombinant full-length HA of A/Vietnam/1203/04 (H5-VN04) (Influenza A virus A/Vietnam/1203/2004 …, UniProt Q5EP31)
Experiment: BLI
Conditions: both partners purified

B1: 3I14 VLD94N variant IgG1 (antibody, V domains shown)
VH: QVQLLESGGGVVQPGRSLRLSCAASGFTFSNYGMHWVRQAPGKGLEWVAIISFDGSKKYYANSVKGRSTISRDNSKNTLSLQMNSLGPEDTALYYCAKLPSPYYFDSRFVWVAASAFHFWGQGILVTVSS
VL: NFMLTQPPSASGTPGQRVTISCSGSSSNIGGNTVHWFQQLPGTAPKLLIYTNSLRPSGVPDRFSGSKSGTSASLAISGLQSEDEADYYCAAWDNSLNGQVFGGGTKLTVL
Kd: 0.187 nM | koff: 7.74e-05 s⁻¹ | kon: 383000 M⁻¹ s⁻¹
